# Source: publication PMC7920257, “Probing Protein Folding with Sequence-Reversed α-Helical Bundles” (International Journal of Molecular Sciences, 2021)
# What was measured:
# RM6 = RM6 (UniProt P03051); test: SAXS; 10 °C, 1–12 mg/mL; molecular mass from I(0) of the Guinier plot against BSA; rRop from the refolding protocol
# rRM6 [1] = test: SEC-MALS; 100 uL loaded (wtRop 3 mg/mL, rRop 5.5 mg/mL, rRM6 3.5 mg/mL) on Superdex 75 (wtRop, rRop) or Superdex 200 (rRM6); rRop from the non-refolding protocol
# rRM6 [2] = test: SEC; Sephacryl S-200 high-resolution column, 20 °C, 0.5 mL/min, after Ni-NTA; rRop from the refolding protocol gives an asymmetric peak
# rRM6 [3] = test: SAXS; 10 °C, 1–12 mg/mL; molecular mass from I(0) of the Guinier plot against BSA; rRop from the refolding protocol
# rRop = test: SEC-MALS; 100 uL loaded (wtRop 3 mg/mL, rRop 5.5 mg/mL, rRM6 3.5 mg/mL) on Superdex 75 (wtRop, rRop) or Superdex 200 (rRM6); rRop from the non-refolding protocol
# [4] = target: the molecule itself; test: as above
molecule,measurement,setting,value
RM6 (from UniProt P03051 1-63) (natural protein),stoichiometry N,RM6,4
rRM6,stoichiometry N,rRM6 [1],4
same,stoichiometry N,rRM6 [2],4
same,stoichiometry N,rRM6 [3],4
rRop,stoichiometry N,rRop,2
"Rop (natural protein, homodimeric 4-alpha-helical bundle; also called wtRop; wild-type Rop) MTKQEKTALNMARFIRSQTLTLLEKLNELDADEQADICESLHDHADELYRSCLARFGDDGENL",stoichiometry N,[4],2
